The values that follow are results of earlier work, collected in paper PMC3575173.

This data set concerns the target TAMRA-TRTK-12 (UniProt P52907).

With S100B (from UniProt P04271), the dissociation constant Kd was 1190 nM.

The term Kd denotes the constant that tells how readily two partners part at equilibrium.
